One block for each molecule: values may come before it.
Key:
Test in all cases: cell-based or functional assay
[1] = molecular target: intermediate affinity IL2 receptor on TF-1β cells (UniProt P14784)
[2] = molecular target: high affinity IL2 receptor on CTLL-2 mouse T cells (mouse) (UniProt P01590)
[3] = molecular target: T1, high affinity IL2 receptor on CTLL-2 mouse T cells (mouse, UniProt P01590 22-268; P16297 27-539; P34902 23-369)
T1 sequence (looked up) 1: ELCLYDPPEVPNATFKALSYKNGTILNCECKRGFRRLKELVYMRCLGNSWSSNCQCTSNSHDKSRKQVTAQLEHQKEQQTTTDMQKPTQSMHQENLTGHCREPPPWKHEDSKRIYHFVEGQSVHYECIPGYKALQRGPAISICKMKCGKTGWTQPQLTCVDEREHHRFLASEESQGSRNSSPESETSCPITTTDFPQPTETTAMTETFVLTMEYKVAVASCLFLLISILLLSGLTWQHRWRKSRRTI
T1 sequence (looked up) 2: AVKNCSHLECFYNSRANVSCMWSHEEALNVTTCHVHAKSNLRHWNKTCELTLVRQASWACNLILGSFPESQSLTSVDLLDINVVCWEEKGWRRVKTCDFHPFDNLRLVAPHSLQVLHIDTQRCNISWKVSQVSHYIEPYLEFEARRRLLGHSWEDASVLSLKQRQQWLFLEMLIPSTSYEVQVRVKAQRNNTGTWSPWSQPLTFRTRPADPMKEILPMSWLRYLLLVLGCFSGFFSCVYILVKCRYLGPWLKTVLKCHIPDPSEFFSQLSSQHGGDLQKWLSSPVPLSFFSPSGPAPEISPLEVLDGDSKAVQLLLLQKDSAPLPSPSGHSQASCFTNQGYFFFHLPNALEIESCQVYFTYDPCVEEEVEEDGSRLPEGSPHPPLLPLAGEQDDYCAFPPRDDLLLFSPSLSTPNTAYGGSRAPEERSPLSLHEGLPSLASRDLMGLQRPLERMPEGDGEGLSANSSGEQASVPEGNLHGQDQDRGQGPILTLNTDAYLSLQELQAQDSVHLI
T1 sequence (looked up) 3: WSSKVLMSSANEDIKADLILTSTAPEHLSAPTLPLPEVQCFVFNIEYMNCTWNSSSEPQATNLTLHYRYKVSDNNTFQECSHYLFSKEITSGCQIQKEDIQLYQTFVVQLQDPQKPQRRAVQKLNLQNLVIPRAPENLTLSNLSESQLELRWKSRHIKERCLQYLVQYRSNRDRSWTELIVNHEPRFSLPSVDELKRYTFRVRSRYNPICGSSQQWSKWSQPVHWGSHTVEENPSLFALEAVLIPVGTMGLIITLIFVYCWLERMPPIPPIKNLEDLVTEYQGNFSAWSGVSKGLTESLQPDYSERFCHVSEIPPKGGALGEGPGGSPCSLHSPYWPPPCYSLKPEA

[4] = molecular target: T2, intermediate affinity IL2 receptor on TF-1β cells (UniProt P14784 27-551; P31785 23-369)
T2 sequence (looked up) 1: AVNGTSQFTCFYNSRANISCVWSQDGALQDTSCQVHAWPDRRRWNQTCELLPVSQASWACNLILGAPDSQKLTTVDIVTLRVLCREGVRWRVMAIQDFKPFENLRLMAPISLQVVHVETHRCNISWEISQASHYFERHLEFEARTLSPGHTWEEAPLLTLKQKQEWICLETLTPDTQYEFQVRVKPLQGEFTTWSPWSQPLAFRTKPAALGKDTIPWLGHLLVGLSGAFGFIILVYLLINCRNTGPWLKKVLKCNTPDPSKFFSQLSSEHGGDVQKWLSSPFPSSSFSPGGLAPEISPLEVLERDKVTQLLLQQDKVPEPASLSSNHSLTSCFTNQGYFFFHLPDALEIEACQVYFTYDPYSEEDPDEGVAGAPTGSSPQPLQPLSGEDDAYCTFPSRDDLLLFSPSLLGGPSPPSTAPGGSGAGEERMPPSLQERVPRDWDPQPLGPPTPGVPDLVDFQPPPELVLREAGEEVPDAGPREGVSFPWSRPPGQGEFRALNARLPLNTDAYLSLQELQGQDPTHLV
T2 sequence (looked up) 2: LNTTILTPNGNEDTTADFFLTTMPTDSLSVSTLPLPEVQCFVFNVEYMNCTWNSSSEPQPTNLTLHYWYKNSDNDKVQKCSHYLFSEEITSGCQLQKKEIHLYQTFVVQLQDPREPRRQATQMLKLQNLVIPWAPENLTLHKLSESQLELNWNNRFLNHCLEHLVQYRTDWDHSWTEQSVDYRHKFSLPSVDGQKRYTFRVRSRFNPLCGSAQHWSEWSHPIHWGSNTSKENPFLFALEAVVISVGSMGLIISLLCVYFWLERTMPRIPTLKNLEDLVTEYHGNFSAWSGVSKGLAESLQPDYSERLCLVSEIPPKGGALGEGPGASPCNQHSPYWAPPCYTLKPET

Relative Activity High aff/Inter Aff (intermediate affinity part) [1]: 1
Relative Activity High aff/Inter Aff (high affinity part) [2]: 1
Selectivity for High Affinity Receptor [2]: 1
Molecule: ch14.18-IL2-H heavy chain fusion (H-fusion with a chimeric 14.18)

Relative Activity High aff/Inter Aff (high affinity part) [3]: 1
Selectivity for High Affinity Receptor [3]: > 100
Relative Activity High aff/Inter Aff (intermediate affinity part) [4]: 0.01
TF-1β (Int aff) ED50 [4]: > 0.5 mg/L
B1: 14.18-IL2-L containing SEQ ID NO: 5 (other)
light: EIVMTQSPATLSVSPGERATLSCRSSQSLVHRNGNTYLHWYLQKPGQSPKLLIHKVSNRFSGVPDRFSGSGSGTDFTLKISRVEAEDLGVYFCSQSTHVPPLTFGAGTKLELKRTVAAPSVFIFPPSDEQLKSGTASVVCLLNNFYPREAKVQWKVDNALQSGNSQESVTEQDSKDSTYSLSSTLTLSKADYEKHKVYACEVTHQGLSSPVTKSFNRGECAPTSTQLQLEHLLLDLQMILNGINNYKNPKLTRMLTFKFYMPKKATELKHLQCLEEELKPLEEVLNLAQSKNFHLRPRDLISNINVIVLELKGSETTFMCEYADETATIVEFLNRWITFCQSIISTLT
VH: EVQLLQSGPELEKPGASVMISCKASGSSFTGYNMNWVRQNIGKSLEWIGAIDPYYGGTSYNQKFKGRATLTVDKSSSTAYMHLKSLTSEDSAVYYCVSGMEYWGQGTSVTVSS

Relative Activity High aff/Inter Aff (high affinity part) [3]: 1
Selectivity for High Affinity Receptor [3]: > 100
Relative Activity High aff/Inter Aff (intermediate affinity part) [4]: 0.01
TF-1β (Int aff) ED50 [4]: > 0.5 mg/L
B2: 14.18-IL2-L containing SEQ ID NO: 6 (other)
light: IVMTQSPATLSVSPGERATLSCRSSQSLVHRNGNTYLHWYLQKPGQSPKLLIHKVSNRFSGVPDRFSGSGSGTDFTLKISRVEAEDLGVYFCSQSTHVPPLTFGAGTKLELKRTVAAPSVFIFPPSDEQLKSGTASVVCLLNNFYPREAKVQWKVDNALQSGNSQESVTEQDSKDSTYSLSSTLTLSKADYEKHKVYACEVTHQGLSSPVTKSFNRGECTQLQLEHLLLDLQMILNGINNYKNPKLTRMLTFKFYMPKKATELKHLQCLEEELKPLEEVLNLAQSKNFHLRPRDLISNINVIVLELKGSETTFMCEYADETATIVEFLNRWITFCQSIISTLT
VH: B1 VH
